Source: US8865867

Each substance was assayed against HIV-1 envelope (isolate used on monocyte-derived macrophages, not named) (HIV-1) (assay: cell-based or functional assay).

Question: Which IC50 of inhibition of HIV-1 replication in MDM, 7 days does the source give for BanLec here?
Answer: 9.72 nM

What follows are substances tested against HIV-1 consensus subtype C envelope (HIV-1) (assay: cell-based or functional assay).

Question: How did the Fold Decrease in Anti-HIV activity (IC50 of mutant / IC50 of wild-type BanLec) turn out when BanLec H84A was run?
Answer: 2.5 fold

Question: What about the IC50(nM), inhibition of infection of TZM-bl cells by pseudotyped HIV-1 of the same substance?
Answer: 0.7 nM

Question: What does the source list for BanLec H84M?
Answer: Fold Decrease in Anti-HIV activity (IC50 of mutant / IC50 of wild-type BanLec): 21 fold; IC50(nM), inhibition of infection of TZM-bl cells by pseudotyped HIV-1: 7.7 nM

Question: What does the source list for BanLec H84S?
Answer: Fold Decrease in Anti-HIV activity (IC50 of mutant / IC50 of wild-type BanLec): 4.1 fold; IC50(nM), inhibition of infection of TZM-bl cells by pseudotyped HIV-1: 1.6 nM

Question: With BanLec H84T as the substance, how does the Fold Decrease in Anti-HIV activity (IC50 of mutant / IC50 of wild-type BanLec) read?
Answer: 23 fold

Question: What about the IC50(nM), inhibition of infection of TZM-bl cells by pseudotyped HIV-1 of the same substance?
Answer: 7 nM

Question: For BanLec H84Y, which IC50(nM), inhibition of infection of TZM-bl cells by pseudotyped HIV-1 is on record?
Answer: 0.29 nM
